Values quoted from earlier work, collected in paper PMC6596353.
pKd: −log10 of the molar value.

Molecular target: ST2 (Homo sapiens) (UniProt Q01638)
Chain of UniProt Q01638 (Q01638 19-556): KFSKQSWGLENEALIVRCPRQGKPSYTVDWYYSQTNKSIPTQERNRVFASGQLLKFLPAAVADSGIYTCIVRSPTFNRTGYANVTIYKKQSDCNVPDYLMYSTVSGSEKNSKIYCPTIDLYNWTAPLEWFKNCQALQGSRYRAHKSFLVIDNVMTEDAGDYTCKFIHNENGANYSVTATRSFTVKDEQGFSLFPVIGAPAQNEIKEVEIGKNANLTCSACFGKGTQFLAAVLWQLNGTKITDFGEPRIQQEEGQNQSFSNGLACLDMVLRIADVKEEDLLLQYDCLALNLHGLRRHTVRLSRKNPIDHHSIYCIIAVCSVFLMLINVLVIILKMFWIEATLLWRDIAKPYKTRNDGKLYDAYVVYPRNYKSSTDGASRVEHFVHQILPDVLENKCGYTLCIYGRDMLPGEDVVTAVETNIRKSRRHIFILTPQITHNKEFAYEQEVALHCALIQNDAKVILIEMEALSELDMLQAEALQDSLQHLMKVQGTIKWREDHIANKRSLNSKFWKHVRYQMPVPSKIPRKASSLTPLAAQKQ

pKd: 9.35
Substance: IL-33 (from UniProt O95760)
